The results in this text go back to patent publication US20260125455A1 (CLEVELAND CLINIC FOUNDATION, published 2026).

One may read the Kd as the constant that tells how readily two partners part at equilibrium. Read a low Kd as tighter binding. What is called EC50 is the concentration giving half of the maximal effect. The koff is the first-order rate constant of dissociation. The low end stands for slow dissociation, the high end for fast dissociation. As usually defined, the kon is the rate constant with which the complex forms. Low values mean slow association, high ones fast association.

Test [1] addresses T1, human complement protein C6 (human, UniProt P13671 22-934).
T1 construct: also called human C6; C6 antigen
As to the kind of experiment: SPR (Biacore 8K). The protocol:
(§1) The kinetics of C6 binding was compared for the purified chimeric and lead humanized C601 using surface plasmon resonance (SPR, Biacore 8K). IgG were captured on a protein G sensor chip and binding of C6 measured using a three-fold concentration series of C6 from 0.03 nM-25 nM (FIG. 5). In a second experiment, a two-fold concentration series from 0.31 nM-20 nM C6 was used (FIG. 6). For all antibodies, binding of C6 occurred in a concentration-dependent manner and data could be fitted using a 1:1 model to calculate the association rate (kₒₙ), dissociation rates (kd) and affinity constant (KD). The kinetic data are shown in Table 5, which indicates only small differences between the parameters determined from the two independent experiments.
(§2) Binding ELISAs used Nunc Maxisorp 384-well plates, wells coated with C6, C5b,6 complex or C5 (Complement Technology Inc, TX) and goat anti-human IgG (Fab specific) peroxidase secondary antibodies (Sigma-Aldrich, A0293) for detection. For the thermal stability assay, IgG supernatants were diluted to their EC₈₀ concentration, incubated at different temperatures for 10 min and C6 binding measured by ELISA with the binding signal plotted against temperature. Kinetics of C6 binding were measured by capturing antibodies from supernatant samples using Protein G biosensors and performing a 20 min association step with 2.5 nM C6 and a 20 min dissociation step using the Octet RED96. Precise kinetic measurements were obtained by surface plasmon resonance (Biacore 8K, Cytiva). The IgG were captured on a protein G sensor chip. Binding of C6 measured using a three-fold concentration series of C6 from 0.03 nM-25 nM and data were fitted using a 1:1 model in two independent experiments.
In general terms: In SPR one partner is held on a chip, and binding of the other changes the refractive index at the surface.

Test [2] has as its target human complement protein C5 (human, UniProt P01031 19-673; P01031 678-1676). Kind of test: ELISA, C5-coated wells. The protocol:
The 20 purified antibodies were tested by ELISA for their abilities to bind human complement proteins C5, C5b6 and C6. The antibodies were divided into two sets for this analysis. MoC601 HuG4K and HuG4K isotype controls were included alongside each set, as was C601HFKC4 HuG4K (aka 3713) expression supernatant from the original transfection as an additional positive control. In addition, three humanized antibodies (C601HFKC4 HuG4K, C601HPKI HuG4K and C601HPKC4 HuG4K) were included within both sets to allow better comparison between the plates. The antibodies all show specificity for C6 with no detectable binding to C5. All humanized antibodies bind to C6 and to C6 as part of the C5b6 complex. The lower plateaus of the C5b6 complex binding curves are explained by less C6 protein being available for binding when wells are coated with C5b6 complex as opposed to C6 alone. […] The EC₅₀ values are included in the figure but slightly different plateau levels observed for the antibodies are influencing the apparent EC₅₀ values. However, it was noted that the EC₅₀ values tended to be lower on the plates for the second set of antibodies. For this reason, a subset of the 20 antibodies was tested in a further ELISA for binding to C6 and C5b6 complex.
as §2
A general note: In an ELISA, binding on a coated surface is turned into a signal by an enzyme label.

Test [3] has as its target T1, human complement protein C6. Kind of test: ELISA, C6-coated wells, large-scale purified antibody.
Test [4] shares this target. As to the kind of experiment: C6-binding ELISA, A650 nm; sample 'PBS' (28 days at 37 C). Here is the method:
(§3) For the serum stability assessment, samples of the purified candidate antibodies are normally incubated in mouse, human and cynomolgus serum at 37 C for 28 days and then tested in an antigen-binding ELISA. Since the anti-C6 antibodies are expected to bind to both human and cynomolgus C6 but not mouse C6, we anticipated that incubating in human or cynomolgus sera would reduce ELISA binding due to occupation of the antibody binding sites by C6 protein from the sera. Therefore, the chimeric and humanized antibodies were tested with human and mouse sera and with human sera from which the C6 protein has been depleted. The C6-binding ELISA was then used to compare the binding abilities of the C601 antibodies that had been incubated in the 3 different sera to antibody samples that were incubated in PBS at 37 C or kept at 4 C (non-incubated).
(§4) The Uncle instrument (Unchained Labs) was used to monitor unfolding via intrinsic fluorescence and aggregation by static light scattering across a temperature gradient to obtain melting temperatures (Tₘ). […] Isoelectric points were determined by capillary isoelectric focusing using a PA800+ (Beckman Coulter). […]

For test [5] the target is unchanged. Kind of test: C6-binding ELISA, A650 nm; sample 'mouse serum' (28 days at 37 C). The protocol: as §3, with “The C6-binding ELISA was then used to compare the binding abilities of the C601 antibodies that had been incubated in the 3 different sera to antibody samples that were incubated in PBS at 37 C or kept at 4 C (non-incubated).” left out
as §2, with “Precise kinetic measurements were obtained by surface plasmon resonance (Biacore 8K, Cytiva). The IgG were captured on a protein G sensor chip. Binding of C6 measured using a three-fold concentration series of C6 from 0.03 nM-25 nM and data were fitted using a 1:1 model in two independent experiments.” left out

For test [6] the target is unchanged. Kind of test: C6-binding ELISA, A650 nm; sample 'PBS, non-incubated' (kept at 4 C). Here is the method: (§5) The C6-binding ELISA was then used to compare the binding abilities of the C601 antibodies that had been incubated in the 3 different sera to antibody samples that were incubated in PBS at 37 C or kept at 4 C (non-incubated).
as §2, with “Precise kinetic measurements were obtained by surface plasmon resonance (Biacore 8K, Cytiva). The IgG were captured on a protein G sensor chip.” left out
(§6) The Uncle instrument (Unchained Labs) was used to monitor unfolding via intrinsic fluorescence and aggregation by static light scattering across a temperature gradient to obtain melting temperatures (Tₘ). […] Isoelectric points were determined by capillary isoelectric focusing using a PA800+ (Beckman Coulter).

For test [7] the target is unchanged. Kind of test: SPR (Biacore 8K), IgG on protein G chip, C6 0.03-25 nM 3-fold series, 1:1 fit. The protocol:
as §1, §2

The target is the same in test [8]. As to the kind of experiment: SPR (Biacore 8K), IgG on protein G chip, C6 0.31-20 nM 2-fold series, 1:1 fit. Here is the method:
as §1

Test [9] has the same target. Kind of test: C6-binding ELISA, A650 nm; sample 'C6-depleted human serum' (28 days at 37 C). The protocol: as §3, with “The C6-binding ELISA was then used to compare the binding abilities of the C601 antibodies that had been incubated in the 3 different sera to antibody samples that were incubated in PBS at 37 C or kept at 4 C (non-incubated).” left out
as §2, with “Precise kinetic measurements were obtained by surface plasmon resonance (Biacore 8K, Cytiva). The IgG were captured on a protein G sensor chip. Binding of C6 measured using a three-fold concentration series of C6 from 0.03 nM-25 nM and data were fitted using a 1:1 model in two independent experiments.” left out

Test [10] shares this target. Kind of test: C6-binding ELISA, A650 nm; sample 'human serun' (human serum, 28 days at 37 C). Here is the method: as §3, with “The C6-binding ELISA was then used to compare the binding abilities of the C601 antibodies that had been incubated in the 3 different sera to antibody samples that were incubated in PBS at 37 C or kept at 4 C (non-incubated).” left out
as §2, with “Precise kinetic measurements were obtained by surface plasmon resonance (Biacore 8K, Cytiva). The IgG were captured on a protein G sensor chip. Binding of C6 measured using a three-fold concentration series of C6 from 0.03 nM-25 nM and data were fitted using a 1:1 model in two independent experiments.” left out

Test [11] shares this target. Kind of test: C6-binding ELISA, A650 nm; sample 'PBS' (28 days at 37 C) [cont.) D]. The protocol:
as §3, with “The C6-binding ELISA was then used to compare the binding abilities of the C601 antibodies that had been incubated in the 3 different sera to antibody samples that were incubated in PBS at 37 C or kept at 4 C (non-incubated).” left out
as §2, with “Precise kinetic measurements were obtained by surface plasmon resonance (Biacore 8K, Cytiva). The IgG were captured on a protein G sensor chip. Binding of C6 measured using a three-fold concentration series of C6 from 0.03 nM-25 nM and data were fitted using a 1:1 model in two independent experiments.” left out

For test [12] the target is unchanged. Kind of test: C6-binding ELISA, A650 nm; sample 'mouse serum' (28 days at 37 C) [cont.) D]. The protocol:
as §3, §4

Test [13] shares this target. Kind of test: C6-binding ELISA, A650 nm; sample 'PBS, non-incubated' (kept at 4 C) [cont.) D]. Here is the method:
as §5
as §2, with “Precise kinetic measurements were obtained by surface plasmon resonance (Biacore 8K, Cytiva). The IgG were captured on a protein G sensor chip.” left out
as §6

Test [14] shares this target. Kind of test: C6-binding ELISA, A650 nm; sample 'C6-depleted human serum' (28 days at 37 C) [cont.) D]. The protocol:
as §3, §4

For test [15] the target is unchanged. As to the kind of experiment: C6-binding ELISA, A650 nm; sample 'human serun' (human serum, 28 days at 37 C) [cont.) D]. Here is the method:
as §3, §4

For test [16] the target is unchanged. Kind of test: ELISA, purified protein, anti-human IgG (Fab-specific) detection. The protocol:
The binding of the purified chimeric molecules, MoC601 HuG4K and MoC601 HuG1KFab, was also confirmed by ELISA, where the anti-human IgG (Fab-specific) secondary reagent was used. The control mouse antibody bound as previously (EC₅₀ 0.11 nM). The EC₅₀ for purified MoC601 HuG4K (0.27 nM) was similar to that obtained for the MoC601 HuG4K supernatant sample above. […] The EC₅₀ value for the Fab molecule (0.48 nM) was higher than for the antibody, which would be expected since the Fab is unable to bind bivalently to the antigen on the well. A C6-binding assay was also set up on the Octet RED384 instrument. […] However, MoC601 MoG1K could be stably loaded onto anti-mouse Fc (AMC) biosensors. Concentrations of the mouse and chimeric antibodies were adjusted to give similar levels of loading on to the AMC and […]

T1 sequence (P13671 22-934 limits assumed): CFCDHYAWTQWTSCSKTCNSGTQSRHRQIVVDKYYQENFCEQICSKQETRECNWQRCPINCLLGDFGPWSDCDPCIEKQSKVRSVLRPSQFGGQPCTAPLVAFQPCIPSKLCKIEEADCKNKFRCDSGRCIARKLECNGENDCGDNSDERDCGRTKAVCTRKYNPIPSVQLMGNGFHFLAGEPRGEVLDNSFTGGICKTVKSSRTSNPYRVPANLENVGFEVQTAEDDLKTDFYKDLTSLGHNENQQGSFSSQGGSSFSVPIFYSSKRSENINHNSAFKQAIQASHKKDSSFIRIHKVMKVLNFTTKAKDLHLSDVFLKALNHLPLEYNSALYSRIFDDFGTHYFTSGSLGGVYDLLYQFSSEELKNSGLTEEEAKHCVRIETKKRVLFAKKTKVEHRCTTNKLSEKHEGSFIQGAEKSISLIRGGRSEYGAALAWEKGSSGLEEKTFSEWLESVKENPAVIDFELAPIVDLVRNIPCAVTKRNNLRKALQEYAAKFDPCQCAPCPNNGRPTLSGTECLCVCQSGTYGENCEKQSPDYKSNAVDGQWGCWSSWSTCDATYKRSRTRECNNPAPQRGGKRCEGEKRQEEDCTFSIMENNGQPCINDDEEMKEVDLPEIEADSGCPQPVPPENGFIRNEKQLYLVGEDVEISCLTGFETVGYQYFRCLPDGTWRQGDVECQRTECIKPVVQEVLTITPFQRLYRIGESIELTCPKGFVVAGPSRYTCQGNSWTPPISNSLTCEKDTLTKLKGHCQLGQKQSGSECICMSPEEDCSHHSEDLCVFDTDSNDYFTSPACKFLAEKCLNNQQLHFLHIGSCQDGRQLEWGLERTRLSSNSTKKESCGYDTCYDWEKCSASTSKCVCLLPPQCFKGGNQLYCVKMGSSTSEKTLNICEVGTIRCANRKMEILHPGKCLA
Sequence of human complement protein C5 (P01031 19-673 limits assumed, chain 1 of 2): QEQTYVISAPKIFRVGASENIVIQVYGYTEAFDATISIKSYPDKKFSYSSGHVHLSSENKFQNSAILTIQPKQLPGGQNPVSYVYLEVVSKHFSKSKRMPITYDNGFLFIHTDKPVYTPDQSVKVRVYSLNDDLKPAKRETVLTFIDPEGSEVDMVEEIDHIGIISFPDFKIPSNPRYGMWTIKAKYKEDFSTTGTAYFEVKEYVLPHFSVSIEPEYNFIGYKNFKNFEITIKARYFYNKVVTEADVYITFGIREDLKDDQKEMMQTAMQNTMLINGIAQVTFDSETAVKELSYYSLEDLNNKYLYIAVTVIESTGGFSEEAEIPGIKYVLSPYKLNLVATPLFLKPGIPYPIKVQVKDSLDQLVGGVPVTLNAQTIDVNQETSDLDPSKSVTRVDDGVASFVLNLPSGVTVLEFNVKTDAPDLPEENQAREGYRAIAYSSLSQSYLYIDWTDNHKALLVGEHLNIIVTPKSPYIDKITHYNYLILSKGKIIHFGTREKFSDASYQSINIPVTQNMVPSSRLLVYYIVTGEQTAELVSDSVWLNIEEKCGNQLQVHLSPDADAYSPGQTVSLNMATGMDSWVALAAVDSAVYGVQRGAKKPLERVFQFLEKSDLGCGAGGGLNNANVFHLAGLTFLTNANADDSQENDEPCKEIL
Sequence of human complement protein C5 (P01031 678-1676 limits assumed, chain 2 of 2): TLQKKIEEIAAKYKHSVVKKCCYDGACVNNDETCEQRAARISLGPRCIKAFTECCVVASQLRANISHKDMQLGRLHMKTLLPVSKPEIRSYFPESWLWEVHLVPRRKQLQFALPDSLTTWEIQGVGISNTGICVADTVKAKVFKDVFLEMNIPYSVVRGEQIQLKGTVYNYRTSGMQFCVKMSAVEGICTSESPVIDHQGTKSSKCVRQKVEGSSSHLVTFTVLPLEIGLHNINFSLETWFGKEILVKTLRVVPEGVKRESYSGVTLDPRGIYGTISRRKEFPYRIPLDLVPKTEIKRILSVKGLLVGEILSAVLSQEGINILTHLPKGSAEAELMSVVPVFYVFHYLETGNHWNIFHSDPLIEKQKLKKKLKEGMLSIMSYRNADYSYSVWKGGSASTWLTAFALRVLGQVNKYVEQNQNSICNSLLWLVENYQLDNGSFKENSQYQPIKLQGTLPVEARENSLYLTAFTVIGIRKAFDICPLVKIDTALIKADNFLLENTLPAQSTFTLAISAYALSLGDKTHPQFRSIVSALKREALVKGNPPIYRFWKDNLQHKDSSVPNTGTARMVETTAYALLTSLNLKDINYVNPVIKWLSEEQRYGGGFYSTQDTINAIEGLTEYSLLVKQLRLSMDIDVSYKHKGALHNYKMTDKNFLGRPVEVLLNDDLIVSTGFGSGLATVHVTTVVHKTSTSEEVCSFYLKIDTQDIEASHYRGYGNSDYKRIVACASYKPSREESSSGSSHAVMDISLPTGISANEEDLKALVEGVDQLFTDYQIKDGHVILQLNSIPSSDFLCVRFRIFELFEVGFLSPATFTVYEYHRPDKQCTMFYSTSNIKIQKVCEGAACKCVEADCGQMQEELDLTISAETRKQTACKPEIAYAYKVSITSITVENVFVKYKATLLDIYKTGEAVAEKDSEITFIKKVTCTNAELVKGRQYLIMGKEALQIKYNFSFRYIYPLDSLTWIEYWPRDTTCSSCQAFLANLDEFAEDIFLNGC

B1: C601HFKI HuG4K (antibody, human IgG4 S228P, kappa)
heavy: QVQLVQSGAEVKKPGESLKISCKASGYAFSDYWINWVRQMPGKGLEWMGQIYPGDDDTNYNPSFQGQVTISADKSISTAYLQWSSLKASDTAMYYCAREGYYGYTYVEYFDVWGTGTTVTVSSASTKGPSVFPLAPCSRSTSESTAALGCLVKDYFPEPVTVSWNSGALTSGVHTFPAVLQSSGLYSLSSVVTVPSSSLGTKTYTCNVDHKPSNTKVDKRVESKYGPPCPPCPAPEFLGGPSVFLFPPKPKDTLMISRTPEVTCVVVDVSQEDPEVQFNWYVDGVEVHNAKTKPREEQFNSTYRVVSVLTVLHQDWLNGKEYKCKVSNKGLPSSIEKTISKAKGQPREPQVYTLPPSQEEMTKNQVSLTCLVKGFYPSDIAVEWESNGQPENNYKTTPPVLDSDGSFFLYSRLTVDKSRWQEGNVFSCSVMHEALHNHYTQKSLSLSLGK
light: EIVLTQSPATLSLSPGERATLSCRASSSVSYLHWYQQKPGQSPRLWIYDTSKRATGIPARFSGSGSGTDYTLTISSLEPEDFAVYYCQQWTSNPLTFGQGTKLEIKRTVAAPSVFIFPPSDEQLKSGTASVVCLLNNFYPREAKVQWKVDNALQSGNSQESVTEQDSKDSTYSLSSTLTLSKADYEKHKVYACEVTHQGLSSPVTKSFNRGEC
On to B1, for which the equilibrium dissociation constant (Kd) in [1] is 0.348 nM; in test [7] it was 0.348 nM; in [8] it was 0.279 nM. For the same molecule, the binding result in test [2] is given as “no binding”. Further, the half-maximal effective concentration (EC50) in [3] is 0.22 nM; in test [4], 0.22 nM; in [5], 0.18 nM; in [6] it was 0.2 nM; in [9], 0.19 nM; in [10], 0.2 nM. Also, the results for the koff in test [7] and in [8] were 0.000308 s⁻¹ and 0.000317 s⁻¹, respectively. Besides, the kon came to 890000 M⁻¹ s⁻¹ in [7] and 1.14e+06 M⁻¹ s⁻¹ in test [8].

B2: C601HPKI HuG4K (antibody, human IgG4 S228P, kappa)
heavy: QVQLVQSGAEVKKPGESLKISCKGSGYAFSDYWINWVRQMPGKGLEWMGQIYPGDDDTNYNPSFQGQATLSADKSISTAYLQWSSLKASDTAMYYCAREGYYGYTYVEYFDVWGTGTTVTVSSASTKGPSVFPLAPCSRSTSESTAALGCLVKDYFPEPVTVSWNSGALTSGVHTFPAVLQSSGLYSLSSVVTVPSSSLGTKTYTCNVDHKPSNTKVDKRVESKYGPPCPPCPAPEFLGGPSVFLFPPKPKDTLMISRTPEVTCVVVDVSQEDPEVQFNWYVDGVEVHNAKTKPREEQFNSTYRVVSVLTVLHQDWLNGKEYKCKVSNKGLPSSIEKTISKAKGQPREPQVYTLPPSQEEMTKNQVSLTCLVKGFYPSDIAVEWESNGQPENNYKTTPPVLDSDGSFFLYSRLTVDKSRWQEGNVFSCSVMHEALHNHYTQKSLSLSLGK
light: B1 light
For the molecule B2, the Kd in [1] is 0.433 nM; in [7] it was 0.433 nM; in test [8], 0.295 nM. Moreover, the binding result in [2] is on record as “no binding”. Also, the EC50 in test [3] was found to be 0.17 nM; in test [11], 0.17 nM; in test [12], 0.15 nM; in test [13], 0.14 nM; in [14] it was 0.19 nM; in test [15] it was 0.19 nM. Further, the dissociation rate constant (koff) was 0.000445 s⁻¹ in [7] and 0.000361 s⁻¹ in [8]. Moreover, the kon in test [7] came to 1.03e+06 M⁻¹ s⁻¹; in [8], 1.23e+06 M⁻¹ s⁻¹.

B3: MoC601 HuG1KFab (Fab, V domains shown)
VH: QVQLQQSGAELVKPGASVKISCKASGYAFSDYWMNWVKQRPGKGLEWIGQIYPGDDDTNYNGKFKGKATLTADKSSSTAYMQLSSLTSEDSAVYFCAREGYYGYTYVEYFDVWGTGTTVTVSS
VL: QIVLTQSPAIMSVSPGEKVTLTCSASSSVSYMHWYQQKSGTSPKRWIYDTSKLASGVPARFSGSGSGTSYSLTISSMEAEDAATYYCQQWTSNPLTFGAGTKLELRR
notes: also called chimeric Fab; Fab molecule
B3 had a 50% effective concentration (EC50) in [16] of 0.48 nM. This lies in the sub-nanomolar range.
